Measurements published in patent US20240209086A1 (PETMEDIX, published 2024).

What follows are binders tested against canine CD3 on canine T cells (canine PBMC) (canine, UniProt P27597 22-202) (assay: cell-based or functional assay).
Sequence of canine CD3 on canine T cells (canine PBMC) (P27597 22-202 limits assumed, chain 1 of 3): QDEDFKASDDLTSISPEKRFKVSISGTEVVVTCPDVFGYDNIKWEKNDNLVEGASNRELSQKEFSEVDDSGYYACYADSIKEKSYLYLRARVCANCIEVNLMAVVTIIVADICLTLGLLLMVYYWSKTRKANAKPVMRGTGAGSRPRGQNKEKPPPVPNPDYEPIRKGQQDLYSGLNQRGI
Sequence of canine CD3 on canine T cells (canine PBMC) (chain, as listed by the source limits assumed, chain 2 of 3): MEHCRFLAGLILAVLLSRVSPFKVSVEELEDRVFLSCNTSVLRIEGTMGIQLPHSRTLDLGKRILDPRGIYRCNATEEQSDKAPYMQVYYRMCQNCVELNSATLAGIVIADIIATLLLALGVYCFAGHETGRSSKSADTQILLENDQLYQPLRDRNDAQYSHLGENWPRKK
Sequence of canine CD3 on canine T cells (canine PBMC) (chain, as listed by the source limits assumed, chain 3 of 3): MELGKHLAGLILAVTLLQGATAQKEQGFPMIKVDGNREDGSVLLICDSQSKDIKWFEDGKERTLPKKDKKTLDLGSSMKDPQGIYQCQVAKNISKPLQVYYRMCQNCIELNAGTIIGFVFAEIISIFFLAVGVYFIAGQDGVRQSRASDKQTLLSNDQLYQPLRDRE

Row | CD25 Activation, Day 6, IS | CD25 Activation, Day 6, PB | CD25 Activation, Day 9, IS | CD25 Activation, Day 9, PB | IFNy Concentration pg/ml, Day 6, IS | IFNy Concentration pg/ml, Day 9, IS | IFNy Concentration pg/ml, Day 9, PB | Ki67 Proliferation, Day 6, IS | Ki67 Proliferation, Day 6, PB | Ki67 Proliferation, Day 9, IS | Binder
1 | 11.9 | 13.7 | 10.4 | 6.22 | 106 pg/mL | 146 pg/mL | 277 pg/mL | 0.98 | 0.57 | 1.91 | PMX171 (monospecific anti-canine CD3, canine IgG-B effector function deficient Fc) (antibody) heavy: EVQLVESGGDLVKPGGSLRLSCEASGFTFSSYHMSWVRQAPGKGLQWVAYINNGGSGTSYADAVKGRFTISRDNAKNTLYLQMNSLRAEDTAVYFCASEGGGKRYGYKDYGMDYWGHGTSLFVSSASTTAPSVFPLAPSCGSTSGSTVALACLVSGYFPEPVTVSWNSGSLTSGVHTFPSVLQSSGLYSLSSMVTVPSSRWPSETFTCNVAHPASKTKVDKPVPKRENGRVPRPPDCPKCPAPESLGGPSVFIFPPKPKDTLLIARTPEVTCVVVDLGREDPEVQISWFVDGKQMQTAKTQPREEQFNGTYRVVSVLPIGHQDWLKGKQFTCKVNHIGLPSPIERTISKARGQAHQPSVYVLPPSREELSKNTVSLTCLIKDFFPPDIDVEWQSNGQQEPESKYRTTPPQLDEDGSYFLYSKLSVDKSRWQRGDTFICAVMHEALHNHYTQKSLSHSPGK VL: SYVLTQLPSKNVTLKQPAHITCGGDNIGSKSVHWYQQKLGQAPVLIIYYDSSRPTGIPERFSGANSGNTATLTISGALAEDEADYYCQVWDSSAKAWVFGEGTQLTVL
2 | 7.17 | 13.4 | 8.87 | 6.52 | 61.1 pg/mL | 301 pg/mL | 2450 pg/mL | 1.57 | 0.15 | 1.53 | PMX168 (monospecific anti-canine CD3, canine IgG-B effector function deficient Fc) (antibody, V domains shown) VH: ELTLQESGPGLVKPSQTLSLTCVVSGGSVTRSYYWNWIRQRPGRGLEWMGYWTGTTNYNPAFQGRISITADTAKNQCSLQLSSMTTEDTAVYYCAREGGKLLGAFGHWGQGTLVTVSS VL: SYVLTQLPSKNVTLKQPAHITCGGDKIGSKSVHWYQQKLGQAPVLIIYYDSSRPTGIPERFSGANSGNTATLTISGALAEDEADYYCQVWDSSAKASVFGGGTHLTVL
3 | 11.4 | 14.5 | 9.15 | 22 | 67.6 pg/mL | 112 pg/mL | 2780 pg/mL | 2.77 | 0.95 | 0.92 | PMX166 (monospecific anti-canine CD3, canine IgG-B effector function deficient Fc) (antibody, V domains shown) VH: ELTLQESGPGLVKPSQTLSLTCVVSGGSVTSSYFWNWIRQRPGRGLEWMGYWTGSTIYSPAFQGRISITPDTAKNQFSLQLSSMTTEDTAVYYCSREGGSTLGAFAYWGQGTLVTVSS VL: SYVLTQLPSKNVTLKQPAHITCGGDNIGSKSVHWYQQKLGQAPVLIIYYDSSRPTGIPERFSGANSGNTATLTISGALAEDEADYYCQVWDSSAKASVFGGGTHLTVL
4 | 7.37 | 8.61 | 8.21 | 8.48 | 17.4 pg/mL | 627 pg/mL | 591 pg/mL | 0.95 | 0.089 | 1.03 | PMX174 (monospecific anti-canine CD3, canine IgG-B effector function deficient Fc) (antibody) heavy: EVQLVESGGDLVKAGVSLRLSCVASGFTFSNYHLNWVRQAPGKGPQWVASINSGGSSTYYADAVKGRFTISRDNAKNTLYLQMNSLRAEDTAVYYCASDHGSYRGMDYWGHGTSLFVSSASTTAPSVFPLAPSCGSTSGSTVALACLVSGYFPEPVTVSWNSGSLTSGVHTFPSVLQSSGLYSLSSMVTVPSSRWPSETFTCNVAHPASKTKVDKPVPKRENGRVPRPPDCPKCPAPESLGGPSVFIFPPKPKDTLLIARTPEVTCVVVDLGREDPEVQISWFVDGKQMQTAKTQPREEQFNGTYRVVSVLPIGHQDWLKGKQFTCKVNHIGLPSPIERTISKARGQAHQPSVYVLPPSREELSKNTVSLTCLIKDFFPPDIDVEWQSNGQQEPESKYRTTPPQLDEDGSYFLYSKLSVDKSRWQRGDTFICAVMHEALHNHYTQKSLSHSPGK VL: SYVLTQLPSKNVTLKQPAHITCGGDNIGSKSVHWYQQKLGQAPVLIIYYDSSRPTGIPERFSGANSGNTATLTISGALAEDEADYYCQVWDSSAKAVFGGGTHLTVL
5 | 14.5 | 8.76 | 10 | 9.46 | 51 pg/mL | 233 pg/mL | 706 pg/mL | 2.03 | 0.59 | 1 | PMX175 (monospecific anti-canine CD3, canine IgG-B effector function deficient Fc) (antibody, V domains shown) VH: ELTLQESGPGLVKPSQTLSLTCVVSGGSVTSTYYWNWIRQRPGRGLEWMGYWTGTTNYNPAFQGRISITADTAKNQFSLQLSSMTTEDTAVYYCAREDLVTVGSGAFNYWGQGTLVTVSS VL: SYVLTQLPSKNVTLKQPAHITCGGDNIGSKSVHWYQQKLGQAPVLIIYYDSSRPTGIPERFSGANSGNTATLTISGALAEDEADYYCQVWDSSATWVFGEGTQLTVL

Same assay, conditions: not given

Row | Ki67 Proliferation, Day 9, PB | Binder
6 | 0.52 | PMX171 (monospecific anti-canine CD3, canine IgG-B effector function deficient Fc) (antibody) heavy: EVQLVESGGDLVKPGGSLRLSCEASGFTFSSYHMSWVRQAPGKGLQWVAYINNGGSGTSYADAVKGRFTISRDNAKNTLYLQMNSLRAEDTAVYFCASEGGGKRYGYKDYGMDYWGHGTSLFVSSASTTAPSVFPLAPSCGSTSGSTVALACLVSGYFPEPVTVSWNSGSLTSGVHTFPSVLQSSGLYSLSSMVTVPSSRWPSETFTCNVAHPASKTKVDKPVPKRENGRVPRPPDCPKCPAPESLGGPSVFIFPPKPKDTLLIARTPEVTCVVVDLGREDPEVQISWFVDGKQMQTAKTQPREEQFNGTYRVVSVLPIGHQDWLKGKQFTCKVNHIGLPSPIERTISKARGQAHQPSVYVLPPSREELSKNTVSLTCLIKDFFPPDIDVEWQSNGQQEPESKYRTTPPQLDEDGSYFLYSKLSVDKSRWQRGDTFICAVMHEALHNHYTQKSLSHSPGK VL: SYVLTQLPSKNVTLKQPAHITCGGDNIGSKSVHWYQQKLGQAPVLIIYYDSSRPTGIPERFSGANSGNTATLTISGALAEDEADYYCQVWDSSAKAWVFGEGTQLTVL
7 | 0.36 | PMX168 (monospecific anti-canine CD3, canine IgG-B effector function deficient Fc) (antibody, V domains shown) VH: ELTLQESGPGLVKPSQTLSLTCVVSGGSVTRSYYWNWIRQRPGRGLEWMGYWTGTTNYNPAFQGRISITADTAKNQCSLQLSSMTTEDTAVYYCAREGGKLLGAFGHWGQGTLVTVSS VL: SYVLTQLPSKNVTLKQPAHITCGGDKIGSKSVHWYQQKLGQAPVLIIYYDSSRPTGIPERFSGANSGNTATLTISGALAEDEADYYCQVWDSSAKASVFGGGTHLTVL
8 | 1.28 | PMX166 (monospecific anti-canine CD3, canine IgG-B effector function deficient Fc) (antibody, V domains shown) VH: ELTLQESGPGLVKPSQTLSLTCVVSGGSVTSSYFWNWIRQRPGRGLEWMGYWTGSTIYSPAFQGRISITPDTAKNQFSLQLSSMTTEDTAVYYCSREGGSTLGAFAYWGQGTLVTVSS VL: SYVLTQLPSKNVTLKQPAHITCGGDNIGSKSVHWYQQKLGQAPVLIIYYDSSRPTGIPERFSGANSGNTATLTISGALAEDEADYYCQVWDSSAKASVFGGGTHLTVL
9 | 0 | PMX174 (monospecific anti-canine CD3, canine IgG-B effector function deficient Fc) (antibody) heavy: EVQLVESGGDLVKAGVSLRLSCVASGFTFSNYHLNWVRQAPGKGPQWVASINSGGSSTYYADAVKGRFTISRDNAKNTLYLQMNSLRAEDTAVYYCASDHGSYRGMDYWGHGTSLFVSSASTTAPSVFPLAPSCGSTSGSTVALACLVSGYFPEPVTVSWNSGSLTSGVHTFPSVLQSSGLYSLSSMVTVPSSRWPSETFTCNVAHPASKTKVDKPVPKRENGRVPRPPDCPKCPAPESLGGPSVFIFPPKPKDTLLIARTPEVTCVVVDLGREDPEVQISWFVDGKQMQTAKTQPREEQFNGTYRVVSVLPIGHQDWLKGKQFTCKVNHIGLPSPIERTISKARGQAHQPSVYVLPPSREELSKNTVSLTCLIKDFFPPDIDVEWQSNGQQEPESKYRTTPPQLDEDGSYFLYSKLSVDKSRWQRGDTFICAVMHEALHNHYTQKSLSHSPGK VL: SYVLTQLPSKNVTLKQPAHITCGGDNIGSKSVHWYQQKLGQAPVLIIYYDSSRPTGIPERFSGANSGNTATLTISGALAEDEADYYCQVWDSSAKAVFGGGTHLTVL
10 | 0.95 | PMX175 (monospecific anti-canine CD3, canine IgG-B effector function deficient Fc) (antibody, V domains shown) VH: ELTLQESGPGLVKPSQTLSLTCVVSGGSVTSTYYWNWIRQRPGRGLEWMGYWTGTTNYNPAFQGRISITADTAKNQFSLQLSSMTTEDTAVYYCAREDLVTVGSGAFNYWGQGTLVTVSS VL: SYVLTQLPSKNVTLKQPAHITCGGDNIGSKSVHWYQQKLGQAPVLIIYYDSSRPTGIPERFSGANSGNTATLTISGALAEDEADYYCQVWDSSATWVFGEGTQLTVL
